Article doi:10.1101/2021.05.23.445325 (bioRxiv, 2021)
No end group written: not given here.

Columns and labels:
[1] = biological target: T1, 6His-NXF1 1-198 (UniProt Q9UBU9 1-198); assay: ITC
T1 sequence (looked up): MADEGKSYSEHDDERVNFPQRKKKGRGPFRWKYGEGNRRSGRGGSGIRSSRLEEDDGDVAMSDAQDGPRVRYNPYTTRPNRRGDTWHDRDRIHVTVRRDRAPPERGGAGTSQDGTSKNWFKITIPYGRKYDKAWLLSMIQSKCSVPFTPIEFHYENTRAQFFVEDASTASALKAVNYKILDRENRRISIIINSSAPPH

[2] = biological target: T2, GST-NXF1:p15 complex (UniProt Q9UBU9 1-619; Q9UKK6 1-140); assay: pull-down
T2 sequence (looked up) 1: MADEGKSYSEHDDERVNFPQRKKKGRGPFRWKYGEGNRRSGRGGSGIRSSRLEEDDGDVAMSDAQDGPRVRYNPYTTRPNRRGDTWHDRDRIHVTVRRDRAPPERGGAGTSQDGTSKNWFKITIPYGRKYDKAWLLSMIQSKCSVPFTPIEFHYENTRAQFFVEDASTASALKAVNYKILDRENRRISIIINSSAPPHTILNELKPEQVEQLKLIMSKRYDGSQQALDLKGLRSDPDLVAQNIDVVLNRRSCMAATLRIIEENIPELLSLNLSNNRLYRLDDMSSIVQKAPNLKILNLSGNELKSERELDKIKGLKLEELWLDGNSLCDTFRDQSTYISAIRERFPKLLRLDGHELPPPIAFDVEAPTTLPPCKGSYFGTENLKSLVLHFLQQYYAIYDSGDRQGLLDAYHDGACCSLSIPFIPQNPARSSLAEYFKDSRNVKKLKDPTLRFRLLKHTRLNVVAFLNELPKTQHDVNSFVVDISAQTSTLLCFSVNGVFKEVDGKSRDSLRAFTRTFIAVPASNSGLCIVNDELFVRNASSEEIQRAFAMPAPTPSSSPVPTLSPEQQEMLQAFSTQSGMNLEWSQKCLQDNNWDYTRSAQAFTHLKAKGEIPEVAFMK
T2 sequence (looked up) 2: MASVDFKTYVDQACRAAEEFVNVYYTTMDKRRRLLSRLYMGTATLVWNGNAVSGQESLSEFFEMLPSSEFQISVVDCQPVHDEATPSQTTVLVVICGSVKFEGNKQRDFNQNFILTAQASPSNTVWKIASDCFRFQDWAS

Binder: PRSGRGTGRGGGGGGGGGAPRGRYGPPSRRSEYGRKKRRQRRR (peptide, UniProt Q07955 89-120, looked up) [SRSF1 WT-CPP (SRSF1 aa89-120, V5 tag, TAT protein transduction domain)]
- fold increase of affinity against the wild-type SRSF1 peptide [1]: 5 fold

Binder: PASGAGTGRGGGGGGGGGAPRGRYGPPSAASE (peptide, UniProt Q07955 89-120, looked up, also: FAM label, position not given here) [SRSF1 aa 89-120 m4-mutant peptide]
- fold reduction of affinity against SRSF1 WT-CPP [1]: ~10 fold

Binder: PRSGRGTGRGGGGGGGGGAPRGRYGPPSRRSE (peptide, UniProt Q07955 89-120, looked up, also: FAM label, position not given here) [SRSF1 aa 89-120 wild-type peptide]
- binding result [1]: binds

B1: SRSF1 (amino-acids 11-196), 6His-tagged (domain or fragment, UniProt Q07955 11-196, looked up)
chain: AGNNDCRIYVGNLPPDIRTKDIEDVFYKYGAIRDIDLKNRRGGPPFAFVEFEDPRDAEDAVYGRDGYDYDGYRLRVEFPRSGRGTGRGGGGGGGGGAPRGRYGPPSRRSENRVVVSGLPPSGSWQDLKDHMREAGDVCYADVYRDGTGVVEFVRKEDMTYAVRKLDNTKFRSHEGETAYIRVKVDG
- binding result [2]: binds
